The DeepSol protein solubility set

Experiment: soluble on expression in E. coli; label from the status in PepcDB or PDB records

Sequence	soluble on expression in E. coli
MSLRVTLTDVARAAGVSKSTVSLVLNDSSLIKKETQQKVQQAIEQLGYVYNRFAANLRSQKSLTIGVVIDDLINPFFAEFTMGLEMTLAEHGFITVMSNTSQRSDRQKQVLDTLLEHHVAGIVLCPVNSTSEADLQRYANSSTPLLITMRPLDWQQLPVDYVGVDSHAGVREATEYLIQQGHRDIVFIGGLTHHMRYQGYLEAMNHHGLQPWSTDAFSLRAEPTQANGYQLMQQLLDMPSPPTAVICYNDLMAFGAESALGERGLFAGEDISLIGNDGVAACAYSNPPLTTIAVEPLALGKQAAQQILRRIAQPDAPLSHYIYRPTLQIRASTGKEGHHHHHH	soluble
MSLRYIVALTGGIGSGKSTVANAFADLGINVIDADIIARQVVEPGAPALHAIADHFGANMIAADGTLQRRALRERIFANPEEKNWLNALLHPLIQQETQHQIQQATSPYVLWVVPLLVENSLYKKANRVLVVDVSPETQLKRTMQRDDVTREHVEQILAAQATREARLAVADDVIDNNGAPDAIASDVARLHAHYLQLASQFVSQEKPEGGSHHHHHH	soluble
MSLRYIYFFGRKINLSERDKIFRDITSKYKCIHDLRCAFDHTEISSFENIDFNIIDDYLFYIELNEKSYTFNDGISLMVQERFWEAHEALEQLWRHSNGLEKSTLRFIIMVCTAFVHLQRGHYSIYHEVMENALKIDTYNEYKCINIKSLKSEIRSGIFNTYFFIKSLKEGHHHHHH	soluble
MSLSAELLLNVTPSETRVAMIEGGILQEIHIEREAKRGIVGNIYKGKVSRVLPGMQAAFVDIGLDKAAFLHASDIVPHTECVAESEKQQFQVRDISELVRQGQDIVVQVVKDPLGTKGARLTTDITLPSRYLVFMPGASHVGVSQRIESEAERERLKKIVSHYCDEHGGFIIRTAAEGANEKELTQDAAFLKRLWSKVIERRSKYKNRSMLYGELGLAQRILRDFVGTELTKILIDSRQEFENLKEFTSEYVPELTAKLELYHGDKPIFDMYDTENEIQRSLERKVELKSGGYLIIDQTEAMTTIDINTGAFVGRRNLEETIFNTNIEATQAIARQLRLRNLGGIIIIDFIDMASDEHRKRVLTSLETALMKDRVKTNINGFTQLGLVEMTRKRTRESIEHVLCSTCPTCEGRGSVKTVETVCFEILREITRVNRAYDADKFVVYASPAVADTLQGEESHALAELEVFIGKEVRIQAEPLYNQEQFDVVMMEGGSHHHHHH	soluble
MSLSARAEDINNIENKTIGHGRTSYNKSVSGRVENIRLSTESVDYVVLGSGDTFTFNGIVGERTKERGYQVASVIMDGDFTDGLGGGICQTSTTLYNAVLDAGLTVLERHPHSLPVGYVEEGMDAMVSWGSADLRFRNDFDYPVVIRGGVDKEKGEVWFDIREGHHHHHH	soluble
MSLSDNDLQRRILDAVDAGFDAQLATTRDFVAIPSTRGAEGPCQDMIGDLLRQRGYEVDDWHIDLDDLKDLRGYGPIEHDFSKARTVVGTYRPSTNAGRSLILQGHCDVVPAGPLEMWDTPPFSPVIKQGRMYGRGACDMKSGTIGALYALDAIKAAGLRPTGRIHFQSVIEEESTGVGALSTLQRGYRADACFIPEPTGGKMVRSQVGVIWFRLKVRGYPVHVATAGTGSNAITAAYHLIDALGKLEEEWNRRAASDPHFKTLAHPINFNPGIIKGGDWASSVPAWCDVDCRIAILPGWSVADHQAEILACVSAAARDHRFLSNNPPQVEWSGFLSEGYELKNAAEPEAAFGKAYQAVYGSEVEDLVFTALTDTRFYGLNYNIPSLCFGASGEAMHGFNEYIDLESLRQSTKATALFIAEWCGVEPAEGHHHHHH	soluble
MSLSDNIYSVSQLNSAARQMLEGNFCQIWLTGEISNFTQPVSGHWYLTLKDENAQVRCAMFRMKNLRVAFRPQNGMQVLVRANVSLYEPRGDYQLIIDSMHPAGEGLLQQQFEALKMKLAAEGLFAQNLKKTLPHFSKAVGIITSSTGAALQDILHILARRDPSLKVVIYPTAVQGKEATAEIVQMIELANARQEVDVLIVGRGGGSLEDLWCFNEEEVARAIFRSTLPIISAVGHETDVTIADFVADLRAPTPSAAAELVSRNQDELLQQLRHQQQRLDMAFDRLFTRKSQRLKQLALRLQNQHPQNQLRAQQAKNEQLTHRLQLAILRQFENTQQKFTALSVRLKQNPLPYRIQRYQQGLEQLKVRLNFCVNRQVTERQNKLATLCGKLDGLSPLKVLARGYSIAENPQGKAIVSVKDVNQGDFITTQVADGKIVSKVLEGHHHHHH	not soluble
MSLSDQTLQDILRYLTEETGLAPFQVANTVELLREGGTVPFIARYRKERTGELDEVGIRGIEERLAYFTELEERKLTVLKSIEEQGKLTPELADRIRTSRQKTEVEDLYLPYKPKRRTKATIARERGLEPLADLMAAQELTAGTPEEATLPFVDPAGEVPDAAAALEGAGHILAERLADDADARAFVRRLTADQGIFCSRVAADRKGAVTKFEMYYDHREPLKSVPSHRMLAMRRGEKEEVLVLTIEAPTEEILAGLRARIAGRASIFRQLLEGAAEDAYKRLIAPSIEVELRLEAKQRADEAAITVFAQNLRNLLLAPPAGGKRVLGVDPGLRTGSKLAAVDGTGRFLEHVTIYPHAGGEGKVAAAKREFLRLVECHGIEMVAVGNGTAGREMEQFAKETLAEGGKRIPVVMVSEAGASVYSASEIAREEFPDLDLTVRGAISIARRLQDPLAELVKIDPKSIGVGQYQHDVDQRALKKSLDAVVESCVNYVGVDLNTASWALLSYVSGVGPSLARAIVRHRDEHGPFPARRALMKVPRFGDKAFEQAAGFLRIRGGEHPLDATAVHPERYPVVEAMATDLGVSLSQLAADPALPARIDLKRYVTDAVGLPTLRDIMEELKKPGRDPREEFRTAAFRDDVTEIGDLKEGMVLQGVVTNVTAFGAFVDVGVHQDGLVHVSHLSVKFVKDPAEAVRVGQVVQVKVLSVDVQRKRISLSIREAAPGGAPRSTEGHHHHHH	soluble
MSLSELGLGDPERPLDAVLHGFSISQSETIGRRTEMEDVTMIIKDFASYRRGRSSYRGAKCHESGHKEILLGIFDGHGGTECSSMVGDLFPVAFADALNSVLYAAQLNHAYDLPDSVWEPLFVGVFLRLDDTLRLKNIQSGSTAAICFILDNLVVSANCGDSRTVLTRDEAMIKSFGCDSMLYKVEGPTRSSRINEISSGSLLQLEQSQTAQLSGHAIINSARYFMNPEETSEEALVSAKRRGKRVEGLSLRLSKDHKPDDPTETRRIEASGGYVHGGRVMGTLSVCRSFGDFVYKPSISVVPFVSVYHFRTYDAWIVIACDGCWDSISDIDAAMLLSTCLSSQAGALKLRDEAYRLNSQDNISVITVRLYLEEGHHHHHH	soluble
MSLSELSVLSAETAISFHEMDLEILKESQKALREEAGGKEEVEETVENPNPIVFIAVDDQNLPNGEEEDSFIFEKLQFRVKQVMENGTRRVYLSVQATTPAEWQLLVQLRIKTGCQSNILNVVDKDVYKFDSFSYPLNVEIQNSDVKFLKFEMRVLNLMYLDLPTFEEGDEVIEFDDGSRIRVHSNILSLLSDYLGKSEKEYASRTDCPAIKATCSEKEAFLELLYQAYPTRRPIFASFRRLTAGAVGYKCDNLIYQLSKHLIDYNYRPMTFLQRFQAAIENRLEPAISELAFRAALDGTWNQMIQSGFEPENFCGRQVYTKIVCPAILLARNAKPDATTLKKPENNLKFIELEEGDTTKSAILFRGTIFYINSGILAAHGKEMLCIGQNGEYIARYTAEFHRECARGDLIPGEVLVQLLTYMHPMGEVPHPDMIRACIVFAFDHGWNIVKENLENEFEPPITPDEYMSQLMFGDKFDLKNLLRVNIQRAESSCRELAEVLERHGKLKILKDRTHEGIMDRMCSGWGLNPMVNRLSTRFPTTFHHRTVNLQRGKAVVVGEGRAVDTLNSLASDHAFGEPTELIVVD	not soluble
MSLSENIAAYVGLDVHKETLAVAIAAPERLGEVRYYGTINNEAQAVRRLFQKLQGLYGNILSCYEAGPCGFGLYHQLTAMNIKCQVIAPSRIPKSPTDRIKNDHRDAISLARLLRAGELTPVWIPDLTHEAMRDLIRARAAAKRDSRVARQRILSMLLRTDKHYAGKHWTGKHRTWLANQSFSQPSQQIAFQHYCQSLEQIEDRILQLDQEISRLLPEWSLCNLVCQLQALKGVGQLIAITLVAELGDFSRFSNPKQLMAFLGLVPGEYSSGNSIRPRGITKVGNSELRRLLYEAAWSYRTPAKVGAWLIYYRPDSVTQYSKDIAWKAQQRLCSRYRSLTAKGKKSQVAITAVARELTGFMWDIALAAQSSFSQQKQNEGHHHHHH	soluble
